# T1: GST-GmABAS1 (Glycine max/soja (soybean; the cloned …, UniProt A0A3Q9B5G2 1-289)
# T1 sequence: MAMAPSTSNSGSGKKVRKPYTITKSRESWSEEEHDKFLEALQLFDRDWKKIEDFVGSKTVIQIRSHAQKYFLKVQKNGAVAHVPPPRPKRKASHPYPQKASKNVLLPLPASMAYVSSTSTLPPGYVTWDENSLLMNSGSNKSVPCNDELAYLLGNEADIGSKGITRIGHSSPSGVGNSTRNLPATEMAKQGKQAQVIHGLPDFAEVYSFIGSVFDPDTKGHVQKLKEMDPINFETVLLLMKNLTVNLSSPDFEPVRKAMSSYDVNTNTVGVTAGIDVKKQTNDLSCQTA
# B1: Glyma.01G060300 native probe (dsDNA)
# DNA 1: TGAAAAATCGTGTCAGTGTCGCCACGTG
# DNA 2: CACGTGGCGACACTGACACGATTTTTCA
# B2: Glyma.01G060300 native probe, 6-FAM (dsDNA)
# DNA 1: TGAAAAATCGTGTCAGTGTCGCCACGTG
# DNA 2: CACGTGGCGACACTGACACGATTTTTCA
# Key:
# GST-GmABAS1 [1] = biological target: T1, GST-GmABAS1; assay: EMSA; 150 mM KCl, 10 mM Tris pH 7.4, 0.1 mM EDTA, 0.1 mM DTT, EDTA-free protease inhibitor; room temperature 20 min; 6% (non-competitive) or 10% (competitive) acrylamide gel in TBE; conditions: protein: recombinant; tags: N-terminal GST (pGEX-4T-1); label: none (SYBR Green stain); blunt
# GST-GmABAS1 [2] = biological target: T1, GST-GmABAS1; assay: EMSA; 72 pmol protein, 10 pmol probe; 150 mM KCl, 10 mM Tris pH 7.4, 0.1 mM EDTA, 0.1 mM DTT, EDTA-free protease inhibitor; room temperature 20 min; 6% (non-competitive) or 10% (competitive) acrylamide gel in TBE; conditions: protein: recombinant; tags: N-terminal GST (pGEX-4T-1); blunt
Binder,binding result (GST-GmABAS1 [1]),binding result (GST-GmABAS1 [2])
B1,binds,–
B2,–,binds

# From article PMC7260724, “ABAS1 from soybean is a 1R-subtype MYB transcriptional repressor that enhances ABA sensitivity”
